The text below walks through data of PMC10160006 (Nature chemical biology, 2023).

The labels stand for the following.
B1: human EXT2 (residues 46-718), fusion tags removed by TEV protease (enzyme, UniProt Q93063 46-718, looked up)
chain: WPHSIESSNDWNVEKRSIRDVPVVRLPADSPIPERGDLSCRMHTCFDVYRCGFNPKNKIKVYIYALKKYVDDFGVSVSNTISREYNELLMAISDSDYYTDDINRACLFVPSIDVLNQNTLRIKETAQAMAQLSRWDRGTNHLLFNMLPGGPPDYNTALDVPRDRALLAGGGFSTWTYRQGYDVSIPVYSPLSAEVDLPEKGPGPRQYFLLSSQVGLHPEYREDLEALQVKHGESVLVLDKCTNLSEGVLSVRKRCHKHQVFDYPQVLQEATFCVVLRGARLGQAVLSDVLQAGCVPVVIADSYILPFSEVLDWKRASVVVPEEKMSDVYSILQSIPQRQIEEMQRQARWFWEAYFQSIKAIALATLQIINDRIYPYAAISYEEWNDPPAVKWGSVSNPLFLPLIPPQSQGFTAIVLTYDRVESLFRVITEVSKVPSLSKLLVVWNNQNKNPPEDSLWPKIRVPLKVVRTAENKLSNRFFPYDEIETEAVLAIDDDIIMLTSDELQFGYEVWREFPDRLVGYPGRLHLWDHEMNKWKYESEWTNEVSMVLTGAAFYHKYFNYLYTYKMPGDIKNWVDAHMNCEDIAMNFLVANVTGKAVIKVTPRKKFKCPECTAIDGLSLDQTHMVERSECINKFASVFGTMPLKVVEHRADPVLYKDDFPEKLKSFPNIGSL
modifications: N-glycan on Asn637
B2: EXT2-pGEn2 (human EXT2 residues 46-718 with N-terminal His8, AviTag and GFP) (enzyme, UniProt Q93063 46-718, looked up)
chain: B1 chain
B3: human EXT1 (residues 28-746), fusion tags removed by TEV protease (enzyme, UniProt Q16394 28-746, looked up)
chain: FRASRSHSRREEHSGRNGLHHPSPDHFWPRFPDALRPFVPWDQLENEDSSVHISPRQKRDANSSIYKGKKCRMESCFDFTLCKKNGFKVYVYPQQKGEKIAESYQNILAAIEGSRFYTSDPSQACLFVLSLDTLDRDQLSPQYVHNLRSKVQSLHLWNNGRNHLIFNLYSGTWPDYTEDVGFDIGQAMLAKASISTENFRPNFDVSIPLFSKDHPRTGGERGFLKFNTIPPLRKYMLVFKGKRYLTGIGSDTRNALYHVHNGEDVVLLTTCKHGKDWQKHKDSRCDRDNTEYEKYDYREMLHNATFCLVPRGRRLGSFRFLEALQAACVPVMLSNGWELPFSEVINWNQAAVIGDERLLLQIPSTIRSIHQDKILALRQQTQFLWEAYFSSVEKIVLTTLEIIQDRIFKHISRNSLIWNKHPGGLFVLPQYSSYLGDFPYYYANLGLKPPSKFTAVIHAVTPLVSQSQPVLKLLVAAAKSQYCAQIIVLWNCDKPLPAKHRWPATAVPVVVIEGESKVMSSRFLPYDNIITDAVLSLDEDTVLSTTEVDFAFTVWQSFPERIVGYPARSHFWDNSKERWGYTSKWTNDYSMVLTGAAIYHKYYHYLYSHYLPASLKNMVDQLANCEDILMNFLVSAVTKLPPIKVTQKKQYKETMMGQTSRASRWADPDHFAQRQSCMNTFASWFGYMPLIHSQMRLDPVLFKDQVSILRKKYRDIERL
modifications: NAG at Asn330

Test [1] addresses B3. Put plainly: cryo-EM structure.
Test [2] has as its target T1, EXT1-pGEn1 (human EXT1 residues 28-746 with N-terminal His8 and StrepII tag) (human, UniProt Q16394 28-746).
T1 sequence (looked up): B3 chain
Put plainly: SEC-MALS. In general terms: SEC sorts molecules by how far they enter the pores of the column.

In test [3] the target is B1. Put plainly: cryo-EM structure.

With B1, the binding result in test [1] is reported as “binds”.
As to B2, in test [2], the binding result is “binds”.
For B3, the “stoichiometry N” value in test [3] was 1 EXT1:EXT2.
